{"source": "patent US20240285753A1", "about": "(DUKE UNIVERSITY, published 2024)", "binders": {"B1": {"name": "DH1509 (antibody, V domains shown)", "VH": "QVQLVESGGGVVQPGRSLRLSCAASGFTLSSHGIHWVRQAPGKGLEWVAVTSFDGRNKKFGDSVKGRFTISRDNSKNTVYLQMNSLRTEDTAVYYCAKDWGDDYSRWYFDLWGRGTLVTVSS", "VL": "DIQMTQSPSSLSASVGDRVTITCQASHDITKYLNWYQQKPGRAPKLLIYDASNLKTGVPSRFSGSGSGTDFTFTITSLQPEDLATYYCQQSDVLPITFGQGTRLEIK"}}, "biological_target": "MERS spike (2P) (MERS-CoV, UniProt K9N5Q8 18-1291)", "assay": "ELISA, coated spike, mAb titrated"}
{"binder": "B1", "values": [{"measurement": "EC50 (read off the curve)", "value": "~0.2", "unit": "µg/mL"}]}
